# Data reported in patent publication US20140072613A1, “Compositions and Methods for Treating Cutaneous Scarring” (priority 2012, published 2014).
# Key:
# Experiment in all cases: cell-based or functional assay
# [1] = target: T1, TSSK2(h) (human) (UniProt Q96PF2)
# T1 sequence (looked up): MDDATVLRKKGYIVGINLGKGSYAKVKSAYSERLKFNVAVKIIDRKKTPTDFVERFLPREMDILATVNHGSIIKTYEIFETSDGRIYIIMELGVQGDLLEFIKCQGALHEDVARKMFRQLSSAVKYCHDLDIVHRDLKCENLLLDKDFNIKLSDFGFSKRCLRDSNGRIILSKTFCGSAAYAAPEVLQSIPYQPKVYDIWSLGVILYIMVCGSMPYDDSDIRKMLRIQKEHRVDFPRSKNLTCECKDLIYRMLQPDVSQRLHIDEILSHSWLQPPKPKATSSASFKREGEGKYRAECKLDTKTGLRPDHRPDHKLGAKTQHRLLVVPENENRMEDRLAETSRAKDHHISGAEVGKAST
# [2] = target: ErbB4(h) (human) (UniProt Q15303)
# [3] = target: PAK4(h) (human) (UniProt O96013)
# [4] = target: NEK6(h) (human) (UniProt Q9HC98)
# [5] = target: T2, TBK1(h) (human) (UniProt Q9UHD2)
# T2 sequence (looked up): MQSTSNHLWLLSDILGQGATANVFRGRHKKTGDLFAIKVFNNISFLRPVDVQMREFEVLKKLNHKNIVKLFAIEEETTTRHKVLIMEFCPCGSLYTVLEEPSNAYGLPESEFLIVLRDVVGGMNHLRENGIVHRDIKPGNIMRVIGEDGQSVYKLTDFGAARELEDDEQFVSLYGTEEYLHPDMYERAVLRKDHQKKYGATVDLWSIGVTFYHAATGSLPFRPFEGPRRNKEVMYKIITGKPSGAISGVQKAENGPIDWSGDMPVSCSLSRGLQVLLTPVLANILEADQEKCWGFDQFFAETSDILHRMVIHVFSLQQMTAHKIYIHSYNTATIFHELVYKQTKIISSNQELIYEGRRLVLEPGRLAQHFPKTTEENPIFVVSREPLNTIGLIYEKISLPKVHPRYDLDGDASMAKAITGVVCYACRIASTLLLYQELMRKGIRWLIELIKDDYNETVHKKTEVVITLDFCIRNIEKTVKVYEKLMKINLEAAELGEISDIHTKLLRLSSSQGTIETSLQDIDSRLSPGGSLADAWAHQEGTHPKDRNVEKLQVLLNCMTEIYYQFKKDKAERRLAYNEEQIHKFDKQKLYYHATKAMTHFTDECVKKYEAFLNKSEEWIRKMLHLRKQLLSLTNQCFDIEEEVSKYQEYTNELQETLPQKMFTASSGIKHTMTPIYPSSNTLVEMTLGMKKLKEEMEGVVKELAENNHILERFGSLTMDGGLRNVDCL
# [6] = target: mTOR(h) (human) (UniProt P42345)
# [7] = target: p70S6K(h) (human) (UniProt P23443)
# [8] = target: PKCβII(h) (human) (UniProt P05771)
# [9] = target: Met(h) (human) (UniProt P08581)
# [10] = target: CDK5/p35(h) (human) (UniProt Q00535)
# [11] = target: T3, PKCζ(h) (human) (UniProt Q05513)
# T3 sequence (looked up): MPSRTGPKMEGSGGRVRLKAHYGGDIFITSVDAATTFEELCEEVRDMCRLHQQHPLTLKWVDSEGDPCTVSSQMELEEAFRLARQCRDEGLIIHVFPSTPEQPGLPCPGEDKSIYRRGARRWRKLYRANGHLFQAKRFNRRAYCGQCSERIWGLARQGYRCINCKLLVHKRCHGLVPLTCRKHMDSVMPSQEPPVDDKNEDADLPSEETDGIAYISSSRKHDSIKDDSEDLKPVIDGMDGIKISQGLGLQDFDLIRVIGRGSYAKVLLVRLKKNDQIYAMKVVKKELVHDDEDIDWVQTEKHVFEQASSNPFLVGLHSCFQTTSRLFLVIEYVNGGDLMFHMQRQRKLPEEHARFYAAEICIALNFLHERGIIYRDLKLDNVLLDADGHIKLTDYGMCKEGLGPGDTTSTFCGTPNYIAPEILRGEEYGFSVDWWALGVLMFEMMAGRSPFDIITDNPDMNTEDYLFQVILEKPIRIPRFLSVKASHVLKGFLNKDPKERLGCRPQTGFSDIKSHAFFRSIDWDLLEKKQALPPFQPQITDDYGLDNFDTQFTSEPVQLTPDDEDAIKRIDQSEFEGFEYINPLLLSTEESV
# [12] = target: T4, ULK3(h) (human) (UniProt Q6PHR2)
# T4 sequence (looked up): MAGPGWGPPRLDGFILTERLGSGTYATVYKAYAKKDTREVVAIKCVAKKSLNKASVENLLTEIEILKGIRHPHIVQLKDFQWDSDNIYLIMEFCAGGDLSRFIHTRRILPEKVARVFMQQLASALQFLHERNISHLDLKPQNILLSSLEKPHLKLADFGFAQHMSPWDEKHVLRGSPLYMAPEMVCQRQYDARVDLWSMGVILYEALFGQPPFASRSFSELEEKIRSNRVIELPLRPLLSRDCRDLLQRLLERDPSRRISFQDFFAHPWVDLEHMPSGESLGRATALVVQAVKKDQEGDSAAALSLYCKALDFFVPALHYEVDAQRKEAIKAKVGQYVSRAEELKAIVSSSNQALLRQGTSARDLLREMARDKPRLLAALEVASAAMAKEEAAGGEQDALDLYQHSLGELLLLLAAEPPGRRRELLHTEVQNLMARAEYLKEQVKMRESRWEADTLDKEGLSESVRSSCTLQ
# [13] = target: T5, EphA3(h) (human) (UniProt P29320)
# T5 sequence (looked up): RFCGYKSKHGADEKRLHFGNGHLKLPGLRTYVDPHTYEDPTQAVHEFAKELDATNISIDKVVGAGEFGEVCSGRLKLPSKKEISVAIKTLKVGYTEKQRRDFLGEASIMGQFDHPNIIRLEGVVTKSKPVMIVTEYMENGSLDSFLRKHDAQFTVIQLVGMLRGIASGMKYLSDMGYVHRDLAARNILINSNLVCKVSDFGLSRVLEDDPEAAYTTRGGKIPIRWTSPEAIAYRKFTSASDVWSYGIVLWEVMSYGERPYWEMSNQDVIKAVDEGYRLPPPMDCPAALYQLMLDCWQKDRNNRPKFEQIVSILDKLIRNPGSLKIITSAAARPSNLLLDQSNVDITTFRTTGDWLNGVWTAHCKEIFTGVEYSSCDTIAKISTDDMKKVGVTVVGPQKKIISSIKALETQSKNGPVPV
# Chain of NEK6(h) (human) (Q9HC98 whole entry): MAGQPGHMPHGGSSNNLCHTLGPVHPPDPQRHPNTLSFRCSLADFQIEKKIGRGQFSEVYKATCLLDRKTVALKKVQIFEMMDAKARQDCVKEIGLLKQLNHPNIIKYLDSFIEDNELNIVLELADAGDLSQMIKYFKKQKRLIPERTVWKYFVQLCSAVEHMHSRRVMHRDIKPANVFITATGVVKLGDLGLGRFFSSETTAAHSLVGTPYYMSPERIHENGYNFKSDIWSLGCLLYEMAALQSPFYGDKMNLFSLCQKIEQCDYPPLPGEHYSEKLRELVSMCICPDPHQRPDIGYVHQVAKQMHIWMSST
# Chain of mTOR(h) (human) (P42345 1362-2549 limits assumed): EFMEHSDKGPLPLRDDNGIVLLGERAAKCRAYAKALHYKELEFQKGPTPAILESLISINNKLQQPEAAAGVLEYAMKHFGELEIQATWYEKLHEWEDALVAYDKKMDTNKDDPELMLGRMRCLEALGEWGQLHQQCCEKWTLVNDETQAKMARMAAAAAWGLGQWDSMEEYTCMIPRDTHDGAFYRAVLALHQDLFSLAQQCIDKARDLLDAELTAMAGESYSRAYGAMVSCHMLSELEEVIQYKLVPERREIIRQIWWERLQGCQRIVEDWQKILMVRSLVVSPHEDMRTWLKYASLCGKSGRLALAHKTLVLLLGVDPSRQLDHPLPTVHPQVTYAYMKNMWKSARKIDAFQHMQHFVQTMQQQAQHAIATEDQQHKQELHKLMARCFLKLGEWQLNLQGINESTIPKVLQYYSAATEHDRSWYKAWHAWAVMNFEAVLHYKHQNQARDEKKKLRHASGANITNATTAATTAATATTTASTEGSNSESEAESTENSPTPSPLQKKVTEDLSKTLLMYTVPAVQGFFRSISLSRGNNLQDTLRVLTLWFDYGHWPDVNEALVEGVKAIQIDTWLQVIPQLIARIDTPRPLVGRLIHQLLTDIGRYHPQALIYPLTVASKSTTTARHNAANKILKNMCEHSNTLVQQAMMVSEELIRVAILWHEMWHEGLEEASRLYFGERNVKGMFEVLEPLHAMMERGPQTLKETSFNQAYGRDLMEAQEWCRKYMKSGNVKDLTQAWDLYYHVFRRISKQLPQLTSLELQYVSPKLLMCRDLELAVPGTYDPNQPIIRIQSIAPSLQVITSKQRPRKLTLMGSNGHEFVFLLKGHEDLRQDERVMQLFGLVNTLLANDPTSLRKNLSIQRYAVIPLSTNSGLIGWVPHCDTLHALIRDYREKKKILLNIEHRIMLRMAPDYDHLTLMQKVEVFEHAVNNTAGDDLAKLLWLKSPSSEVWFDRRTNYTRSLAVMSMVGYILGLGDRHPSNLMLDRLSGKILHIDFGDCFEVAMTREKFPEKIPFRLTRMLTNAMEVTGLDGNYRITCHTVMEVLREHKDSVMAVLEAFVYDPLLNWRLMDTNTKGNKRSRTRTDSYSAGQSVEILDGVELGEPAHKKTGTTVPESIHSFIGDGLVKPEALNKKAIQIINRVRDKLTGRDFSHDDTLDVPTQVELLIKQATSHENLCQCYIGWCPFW
# Chain of p70S6K(h) (human) (P23443 1-421): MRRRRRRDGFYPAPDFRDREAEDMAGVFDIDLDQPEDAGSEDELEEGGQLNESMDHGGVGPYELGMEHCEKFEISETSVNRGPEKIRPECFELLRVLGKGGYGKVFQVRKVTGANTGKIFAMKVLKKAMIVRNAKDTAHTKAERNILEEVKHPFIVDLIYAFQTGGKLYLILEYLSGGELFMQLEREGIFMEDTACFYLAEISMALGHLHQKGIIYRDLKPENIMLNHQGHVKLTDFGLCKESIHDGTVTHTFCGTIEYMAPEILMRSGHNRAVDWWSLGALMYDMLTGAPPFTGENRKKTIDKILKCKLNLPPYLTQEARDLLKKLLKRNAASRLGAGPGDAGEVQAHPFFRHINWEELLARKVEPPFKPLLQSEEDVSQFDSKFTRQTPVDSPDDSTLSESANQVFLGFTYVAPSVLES
# Chain of ErbB4(h) (human) (Q15303 706-991 limits assumed): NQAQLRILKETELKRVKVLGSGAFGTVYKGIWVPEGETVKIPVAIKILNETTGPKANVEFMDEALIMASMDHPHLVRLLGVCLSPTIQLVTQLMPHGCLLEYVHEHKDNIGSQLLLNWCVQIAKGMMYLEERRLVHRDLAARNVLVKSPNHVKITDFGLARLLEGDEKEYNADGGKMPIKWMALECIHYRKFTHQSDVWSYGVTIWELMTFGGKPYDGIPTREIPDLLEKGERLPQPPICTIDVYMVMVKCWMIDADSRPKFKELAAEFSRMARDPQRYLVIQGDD
# Chain of Met(h) (human) (P08581 956-1390 limits assumed): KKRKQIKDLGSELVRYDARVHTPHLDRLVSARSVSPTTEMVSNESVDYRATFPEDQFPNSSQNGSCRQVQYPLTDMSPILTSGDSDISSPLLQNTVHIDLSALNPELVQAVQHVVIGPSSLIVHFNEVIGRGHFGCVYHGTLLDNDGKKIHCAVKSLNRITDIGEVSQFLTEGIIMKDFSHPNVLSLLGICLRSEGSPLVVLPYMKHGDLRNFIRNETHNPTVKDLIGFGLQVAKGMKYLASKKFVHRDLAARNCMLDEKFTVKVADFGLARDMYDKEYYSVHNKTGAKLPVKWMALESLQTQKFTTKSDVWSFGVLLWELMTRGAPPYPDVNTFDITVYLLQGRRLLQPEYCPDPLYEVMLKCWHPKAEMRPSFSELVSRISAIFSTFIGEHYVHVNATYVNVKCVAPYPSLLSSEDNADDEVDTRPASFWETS
# Chain of PKCβII(h) (human) (P05771 other isoform, or with tags, fused parts or gaps): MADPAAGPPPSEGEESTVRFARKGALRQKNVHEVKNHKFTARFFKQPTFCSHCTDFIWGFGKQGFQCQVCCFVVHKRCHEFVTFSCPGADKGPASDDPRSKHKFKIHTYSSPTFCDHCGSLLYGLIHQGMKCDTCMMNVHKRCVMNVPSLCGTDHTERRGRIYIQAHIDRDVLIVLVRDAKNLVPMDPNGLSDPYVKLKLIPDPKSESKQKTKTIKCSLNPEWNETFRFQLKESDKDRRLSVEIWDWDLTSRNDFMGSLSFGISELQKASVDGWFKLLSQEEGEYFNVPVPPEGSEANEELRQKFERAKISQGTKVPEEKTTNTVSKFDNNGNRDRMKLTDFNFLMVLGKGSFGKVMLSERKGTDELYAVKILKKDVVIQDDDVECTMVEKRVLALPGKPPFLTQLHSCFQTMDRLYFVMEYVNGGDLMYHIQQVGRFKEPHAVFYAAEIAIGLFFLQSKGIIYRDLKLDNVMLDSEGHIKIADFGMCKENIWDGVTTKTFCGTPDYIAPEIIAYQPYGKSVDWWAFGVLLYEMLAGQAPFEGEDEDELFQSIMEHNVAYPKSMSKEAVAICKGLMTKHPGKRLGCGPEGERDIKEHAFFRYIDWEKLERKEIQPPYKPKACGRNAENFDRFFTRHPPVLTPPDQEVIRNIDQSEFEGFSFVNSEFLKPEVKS
# Chain of PAK4(h) (human) (O96013 whole entry): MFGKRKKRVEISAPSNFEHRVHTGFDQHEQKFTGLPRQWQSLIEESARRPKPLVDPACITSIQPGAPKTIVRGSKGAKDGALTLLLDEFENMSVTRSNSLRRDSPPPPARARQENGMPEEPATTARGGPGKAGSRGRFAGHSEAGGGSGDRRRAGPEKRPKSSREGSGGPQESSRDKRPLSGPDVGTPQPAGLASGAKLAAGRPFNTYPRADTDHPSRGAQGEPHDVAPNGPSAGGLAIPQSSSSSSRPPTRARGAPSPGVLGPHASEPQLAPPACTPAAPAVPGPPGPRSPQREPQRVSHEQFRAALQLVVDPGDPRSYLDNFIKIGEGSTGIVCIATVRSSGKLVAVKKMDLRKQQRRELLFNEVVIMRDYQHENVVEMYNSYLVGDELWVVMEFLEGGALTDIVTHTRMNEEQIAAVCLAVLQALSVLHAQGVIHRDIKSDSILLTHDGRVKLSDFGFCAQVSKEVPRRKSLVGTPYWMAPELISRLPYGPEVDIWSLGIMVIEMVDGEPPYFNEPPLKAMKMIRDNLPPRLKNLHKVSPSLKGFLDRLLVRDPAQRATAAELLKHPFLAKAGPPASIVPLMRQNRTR
substance,measurement,setting,value
MMI-0500 (peptide),"% activity, 100 µM",[1],92%
same,"% activity, 100 µM",[2],2%
same,"% activity, 100 µM",[3],86%
same,"% activity, 100 µM",[4],49%
same,"% activity, 100 µM",[5],16%
same,"% activity, 100 µM",[6],135%
same,"% activity, 100 µM",[7],3%
same,"% activity, 100 µM",[8],3%
same,"% activity, 100 µM",[9],27%
same,"% activity, 100 µM",[10],59%
same,"% activity, 100 µM",[11],7%
same,"% activity, 100 µM",[12],177%
same,"% activity, 100 µM",[13],33%
